The record followed here is PMC6436656.

The target in the assay is human GPR35 (GPR35a splice variant), receptor part of the hGPR35 SPASM sensors, Q9HC97. Kind of assay: BRET (hGPR35 SPASM sensor). Conditions: chain shown with the change, highest concentration, read off a plot. On the technique in general: BRET reads energy transfer from a luciferase to a nearby fluorophore.
[1] abbreviates: bufrolin, 1e-6 M, parent: est. 1.1.
Where [2] appears, read: lodoxamide, 1e-6 M, parent: est. 1.1.
The mark [3] stands for this setting: pamoic acid, about 10^-5.5 M, parent: est. 1.0.
Setting [4] is: zaprinast, 1e-4 M, parent: est. 1.1.

Chain of human GPR35 (GPR35a splice variant), receptor part of the hGPR35 SPASM sensors, Q9HC97 (Q9HC97 whole entry, change not shown, canonical isoform): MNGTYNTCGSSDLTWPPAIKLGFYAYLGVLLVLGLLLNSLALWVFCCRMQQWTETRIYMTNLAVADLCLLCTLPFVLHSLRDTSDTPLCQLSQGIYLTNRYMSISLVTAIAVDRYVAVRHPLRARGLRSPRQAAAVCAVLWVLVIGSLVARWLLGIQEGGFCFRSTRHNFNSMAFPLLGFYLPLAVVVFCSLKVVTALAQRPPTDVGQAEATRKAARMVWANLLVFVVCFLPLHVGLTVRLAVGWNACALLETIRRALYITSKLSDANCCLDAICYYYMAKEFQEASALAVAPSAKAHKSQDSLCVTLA

B1: final 27 aa of Gα12, G peptide of the hGPR35-Gα12 SPASM sensor, Q03113 G.H5.22 Asp to Gln (peptide)
chain: DTENVRFVFHAVKDTILQENLKQIMLQ
For the molecule B1, the response (BRET ratio (fold change)) runs as follows: under setting [1], 1.1; under setting [2], 1.2; under setting [3], 1.1; under setting [4], 1.2.

B2: final 27 aa of Gα12, G peptide of the hGPR35-Gα12 SPASM sensor, Q03113 G.H5.23 Ile to Leu (peptide)
chain: DTENVRFVFHAVKDTILQENLKDLMLQ
B2: the response (BRET ratio (fold change)) under setting [1] was determined as 1.4, the response (BRET ratio (fold change)) under setting [2] stood at 1.4, the response (BRET ratio (fold change)) under setting [3] was 1.1 and the response (BRET ratio (fold change)) under setting [4] came to 1.4.
